According to the supplement of paper PMC9112550, “Optimization of the antimicrobial peptide Bac7 by deep mutational scanning” (BMC Biology, 2022):

system: Escherichia coli TOP10; assay: shrunken log2 fold change of peptide-encoding DNA abundance (4.5 h post-induction vs induction); higher = less antimicrobial activity (less host growth inhibition); conditions: time post-induction: 4.5 h; library: site-saturation at positions 5, 18, 19, 20
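Also: peptides expressed intracellularly from a pBAD plasmid library in pooled LB shake-flask culture, induced with 0.3% L-arabinose, DNA abundance read by NGS, three biological replicates, DESeq2 with apeglm shrinkage.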

Sequence | shrunken log2 fold change
RRIRGRPPRLPRPRPRPVHQPRP | 0.228
RRIRGRPPRLPRPRPRPVKQPRP | 0.216
RRIRGRPPRLPRPRPRPVKYPRP | 0.235
RRIRGRPPRLPRPRPRPVLIPRP | 0.223
RRIRGRPPRLPRPRPRPVLKPRP | 0.402
RRIRGRPPRLPRPRPRPVLMPRP | 0.316
RRIRGRPPRLPRPRPRPVMTPRP | 1.8
RRIRGRPPRLPRPRPRPVNAPRP | 0.719
RRIRGRPPRLPRPRPRPVNYPRP | 0.203
RRIRGRPPRLPRPRPRPVPIPRP | 0.372
RRIRGRPPRLPRPRPRPVPPPRP | 1.17
RRIRGRPPRLPRPRPRPVQFPRP | 0.535
RRIRGRPPRLPRPRPRPVQNPRP | 0.588
RRIRGRPPRLPRPRPRPVRVPRP | 0.856
RRIRGRPPRLPRPRPRPVVNPRP | 0.0184
RRIRGRPPRLPRPRPRPVVRPRP | 0.602
RRIRGRPPRLPRPRPRPVWAPRP | 0.591
RRIRGRPPRLPRPRPRPWCKPRP | -0.184
RRIRGRPPRLPRPRPRPWDAPRP | 0.142
RRIRGRPPRLPRPRPRPWDCPRP | -0.0637
RRIRGRPPRLPRPRPRPWEMPRP | 0.0928
RRIRGRPPRLPRPRPRPWENPRP | 1.02
RRIRGRPPRLPRPRPRPWFAPRP | 0.0421
RRIRGRPPRLPRPRPRPWGLPRP | 0.0474
RRIRGRPPRLPRPRPRPWGMPRP | 0.0572

Sequence | shrunken log2 fold change
RRIRGRPPRLPRPRPRPWGQPRP | 0.204
RRIRGRPPRLPRPRPRPWHDPRP | -0.178
RRIRGRPPRLPRPRPRPWIFPRP | 0.224
RRIRGRPPRLPRPRPRPWIPPRP | -0.429
RRIRGRPPRLPRPRPRPWIVPRP | 0.189
RRIRGRPPRLPRPRPRPWKSPRP | -0.207
RRIRGRPPRLPRPRPRPWKWPRP | 0.0325
RRIRGRPPRLPRPRPRPWLCPRP | 0.266
RRIRGRPPRLPRPRPRPWNCPRP | -0.101
RRIRGRPPRLPRPRPRPWPGPRP | 0.265
RRIRGRPPRLPRPRPRPWPYPRP | -0.265
RRIRGRPPRLPRPRPRPWTMPRP | 0.033
RRIRGRPPRLPRPRPRPWYLPRP | -0.575
RRIRGRPPRLPRPRPRPYAAPRP | 0.859
RRIRGRPPRLPRPRPRPYCAPRP | -0.119
RRIRGRPPRLPRPRPRPYCFPRP | 0.0329
RRIRGRPPRLPRPRPRPYCQPRP | -0.32
RRIRGRPPRLPRPRPRPYFCPRP | -0.119
RRIRGRPPRLPRPRPRPYFDPRP | -0.00956
RRIRGRPPRLPRPRPRPYGCPRP | -0.091
RRIRGRPPRLPRPRPRPYGFPRP | -0.0296
RRIRGRPPRLPRPRPRPYHIPRP | 0.158
RRIRGRPPRLPRPRPRPYKRPRP | -0.217
RRIRGRPPRLPRPRPRPYLLPRP | -0.407
RRIRGRPPRLPRPRPRPYMFPRP | 0.221

Sequence | shrunken log2 fold change
RRIRGRPPRLPRPRPRPYQGPRP | 0.0167
RRIRGRPPRLPRPRPRPYQVPRP | 0.174
RRIRGRPPRLPRPRPRPYRAPRP | -0.233
RRIRGRPPRLPRPRPRPYRDPRP | 0.528
RRIRGRPPRLPRPRPRPYRPPRP | -0.186
RRIRGRPPRLPRPRPRPYTFPRP | 0.151
RRIRGRPPRLPRPRPRPYTGPRP | -0.707
RRIRGRPPRLPRPRPRPYVKPRP | -0.417
RRIRGRPPRLPRPRPRPYWGPRP | 0.198
RRIRGRPPRLPRPRPRPYYRPRP | -0.0655
RRIRGRPPRLPRPRPRPYYYPRP | -0.824
RRIRHRPPRLPRPRPRPACPPRP | -0.0965
RRIRHRPPRLPRPRPRPACTPRP | 0.0224
RRIRHRPPRLPRPRPRPADNPRP | -0.306
RRIRHRPPRLPRPRPRPAFGPRP | 0.105
RRIRHRPPRLPRPRPRPAGAPRP | 0.199
RRIRHRPPRLPRPRPRPAGCPRP | 0.242
RRIRHRPPRLPRPRPRPAGEPRP | -0.0717
RRIRHRPPRLPRPRPRPAHCPRP | 0.115
RRIRHRPPRLPRPRPRPAHHPRP | 0.178
RRIRHRPPRLPRPRPRPAHSPRP | 0.0457
RRIRHRPPRLPRPRPRPAIFPRP | -0.00284
RRIRHRPPRLPRPRPRPAIMPRP | -0.233
RRIRHRPPRLPRPRPRPAKSPRP | 0.076
RRIRHRPPRLPRPRPRPALGPRP | -0.0558

Sequence | shrunken log2 fold change
RRIRHRPPRLPRPRPRPANSPRP | -0.271
RRIRHRPPRLPRPRPRPAPEPRP | 0.0106
RRIRHRPPRLPRPRPRPAPFPRP | -0.257
RRIRHRPPRLPRPRPRPAPVPRP | 0.466
RRIRHRPPRLPRPRPRPAPYPRP | 0.296
RRIRHRPPRLPRPRPRPAQTPRP | -0.1
RRIRHRPPRLPRPRPRPARKPRP | -0.164
RRIRHRPPRLPRPRPRPARQPRP | 0.14
RRIRHRPPRLPRPRPRPASHPRP | 0.0269
RRIRHRPPRLPRPRPRPASYPRP | -0.103
RRIRHRPPRLPRPRPRPATAPRP | -0.0944
RRIRHRPPRLPRPRPRPATCPRP | -0.196
RRIRHRPPRLPRPRPRPATKPRP | -0.0317
RRIRHRPPRLPRPRPRPAVRPRP | -0.273
RRIRHRPPRLPRPRPRPAWAPRP | 0.48
RRIRHRPPRLPRPRPRPAWPPRP | 0.613
RRIRHRPPRLPRPRPRPAWWPRP | 0.157
RRIRHRPPRLPRPRPRPCADPRP | -0.12
RRIRHRPPRLPRPRPRPCALPRP | -0.339
RRIRHRPPRLPRPRPRPCAYPRP | -0.0102
RRIRHRPPRLPRPRPRPCCNPRP | 0.0722
RRIRHRPPRLPRPRPRPCFMPRP | -0.404
RRIRHRPPRLPRPRPRPCFRPRP | -0.346
RRIRHRPPRLPRPRPRPCFSPRP | 0.0626
RRIRHRPPRLPRPRPRPCGAPRP | 0.0817

Sequence | shrunken log2 fold change
RRIRHRPPRLPRPRPRPCGCPRP | -0.0378
RRIRHRPPRLPRPRPRPCHYPRP | -0.4
RRIRHRPPRLPRPRPRPCKHPRP | -1.38
RRIRHRPPRLPRPRPRPCLCPRP | -0.268
RRIRHRPPRLPRPRPRPCMMPRP | -0.0344
RRIRHRPPRLPRPRPRPCMNPRP | -0.0607
RRIRHRPPRLPRPRPRPCNAPRP | 0.0746
RRIRHRPPRLPRPRPRPCPRPRP | -0.28
RRIRHRPPRLPRPRPRPCREPRP | 0.0163
RRIRHRPPRLPRPRPRPCRHPRP | -0.204
RRIRHRPPRLPRPRPRPCRNPRP | -0.166
RRIRHRPPRLPRPRPRPCRPPRP | 0.0355
RRIRHRPPRLPRPRPRPCVKPRP | -0.121
RRIRHRPPRLPRPRPRPCVSPRP | -0.311
RRIRHRPPRLPRPRPRPCVWPRP | 0.0245
RRIRHRPPRLPRPRPRPCYIPRP | -0.0479
RRIRHRPPRLPRPRPRPDAAPRP | 0.453
RRIRHRPPRLPRPRPRPDALPRP | 0.227
RRIRHRPPRLPRPRPRPDEFPRP | -0.0223
RRIRHRPPRLPRPRPRPDFRPRP | -0.0827
RRIRHRPPRLPRPRPRPDFWPRP | 0.372
RRIRHRPPRLPRPRPRPDGMPRP | -0.444
RRIRHRPPRLPRPRPRPDHFPRP | -0.169
RRIRHRPPRLPRPRPRPDHKPRP | -0.274
RRIRHRPPRLPRPRPRPDKLPRP | -0.0246

Sequence | shrunken log2 fold change
RRIRHRPPRLPRPRPRPDKNPRP | -0.496
RRIRHRPPRLPRPRPRPDKPPRP | -0.0375
RRIRHRPPRLPRPRPRPDLYPRP | -0.243
RRIRHRPPRLPRPRPRPDMLPRP | -0.481
RRIRHRPPRLPRPRPRPDPCPRP | -0.186
RRIRHRPPRLPRPRPRPDPHPRP | 0.000754
RRIRHRPPRLPRPRPRPDPQPRP | 0.108
RRIRHRPPRLPRPRPRPDQKPRP | 0.0292
RRIRHRPPRLPRPRPRPDQVPRP | -0.0632
RRIRHRPPRLPRPRPRPDRNPRP | -0.0482
RRIRHRPPRLPRPRPRPDRTPRP | 0.0869
RRIRHRPPRLPRPRPRPDSHPRP | -0.0191
RRIRHRPPRLPRPRPRPDSRPRP | -0.00136
RRIRHRPPRLPRPRPRPDTQPRP | 0.047
RRIRHRPPRLPRPRPRPDTWPRP | -1.13
RRIRHRPPRLPRPRPRPDWFPRP | -0.00508
RRIRHRPPRLPRPRPRPDYFPRP | 0.0294
RRIRHRPPRLPRPRPRPDYSPRP | -0.657
RRIRHRPPRLPRPRPRPEASPRP | 0.0128
RRIRHRPPRLPRPRPRPECQPRP | -0.0633
RRIRHRPPRLPRPRPRPECVPRP | 0.321
RRIRHRPPRLPRPRPRPEFHPRP | -0.0718
RRIRHRPPRLPRPRPRPEFKPRP | 0.0348
RRIRHRPPRLPRPRPRPEFMPRP | 0.0682
RRIRHRPPRLPRPRPRPEFPPRP | 0.0962
